Laboratory results taken from paper PMC3113298.

Biological target: Cu, Zn-superoxide dismutase-1 (SOD1), human (human) (UniProt P00441)
Sequence (P00441 whole entry): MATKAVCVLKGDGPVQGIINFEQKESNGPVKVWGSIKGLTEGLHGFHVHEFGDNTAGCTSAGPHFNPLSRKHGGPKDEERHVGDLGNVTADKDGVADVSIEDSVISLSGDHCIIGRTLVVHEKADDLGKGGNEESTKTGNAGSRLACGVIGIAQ

- proteolysis of purified human SOD1 by purified rat PSA/NPEPPS: loss of full-length SOD1 by Western blot after 6 h at 37°C, 50 mM Bicine pH 7.0, 0.2 mM DTT, molar ratio 1:6 (PSA:SOD1): 80%
B1: Puromycin-sensitive aminopeptidase (PSA/NPEPPS), rat (enzyme)
chain: MWLAAAVPSLARRLLLLGSPPPPLLLLLSRSSSRRRRLHSLGLAAMPEKRPFERLPTEVSPINYSLCLKPDLLDFTFEGKLEAAAQVRQATNQIVMNCADIDIITASYAPEGDEEIHATGFNYQNEDEKVTLSFPSTLQTGTGTLKIDFVGELNDKMKGFYRSRYTTPAGEVRYAAVTQFEATDARRAFPCWDEPAIKATFDISLVVPKDRVALSNMNVIDRKPYPDDENLVEVKFARTPVMSTYLVAFVVGEYDFVETRSKDGVCVRVYTPVGKAEQGKFALEVAAKTLPFYKDYFNVPYPLPKIDLIAIADFAAGAMENWGLVTYRETALLIDPKNSCSSSRQWVALVVGHELAHQWFGNLVTMEWWTHLWLNEGFASWIEYLCVDHCFPEYDIWTQFVSADYTRAQELDALDNSHPIEVSVGHPSEVDEIFDAISYSKGASVIRMLHDYIGDKDFKKGMNMYLTKFQQKNAATEDLWESLESASGKPIAAVMNTWTKQMGFPLIYVEAEQVEDDRVLKLSQKKFCASGPYVGEDCPQWMVPITISTSEDPNQAKLKILMDKPEMSVVLKNVKPDQWVKLNLGTVGFYRTQYSSAMLESLLPGIRDLSLPPVDRLGLQNDLFSLARAGIISTVEVLKVMEAFVNEPNYTVWSDLSCNLGILSTLLSHTDFYEEIQEFVKDVFSPIGERLGWDPKPGEGHLDALLRGLVLGKLGKAGHKATLEEARRRFKEHVEGKQILSADLRSPVYLTVLKHGDGTTLDIMLKLHKQADMQEEKNRIERVLGATLSPELIQKVLTFALSEEVRPQDTVSVIGGVAGGSKHGRKAAWKFIKDNWEELYNRYQGGFLISRLIKLSVEGFAVDKMAGEVKAFFESHPAPSAERTIQQCCENILLNAAWLKRDADSIHQYLLQRKASPPSV
